Measurements as given in US20220340682A1 (Sanofi, published 2022).

T1: cCEACAM5, M. fascicularis CEACAM5 ECD (35-688) (Macaca fascicularis)
T1 construct: ECD followed by a 24 amino acid extension containing a His-Tag; also called cynomolgus CEACAM5; monkey CEACAM5
T1 chain: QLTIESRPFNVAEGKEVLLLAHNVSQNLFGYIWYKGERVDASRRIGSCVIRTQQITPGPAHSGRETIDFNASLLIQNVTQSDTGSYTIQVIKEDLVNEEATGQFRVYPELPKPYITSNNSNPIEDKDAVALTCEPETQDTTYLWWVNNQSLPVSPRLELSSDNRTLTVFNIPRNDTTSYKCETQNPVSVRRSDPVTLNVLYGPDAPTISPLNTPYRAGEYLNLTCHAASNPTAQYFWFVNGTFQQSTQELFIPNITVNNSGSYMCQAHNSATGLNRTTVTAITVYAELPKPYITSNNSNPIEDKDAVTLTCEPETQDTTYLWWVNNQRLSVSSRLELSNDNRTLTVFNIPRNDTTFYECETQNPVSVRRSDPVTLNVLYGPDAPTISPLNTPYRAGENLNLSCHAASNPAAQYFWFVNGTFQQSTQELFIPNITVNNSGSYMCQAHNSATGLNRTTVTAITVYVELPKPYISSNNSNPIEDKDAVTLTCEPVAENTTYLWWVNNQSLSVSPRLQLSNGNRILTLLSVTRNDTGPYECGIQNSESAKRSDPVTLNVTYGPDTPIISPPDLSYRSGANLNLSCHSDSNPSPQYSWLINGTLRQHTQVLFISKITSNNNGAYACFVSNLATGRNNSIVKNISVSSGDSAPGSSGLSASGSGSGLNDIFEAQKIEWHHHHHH

T2: human CEACAM5 expressed on the surface of tumor cells (human, UniProt P06731 35-685)
T2 construct: Endogenous CEACAM5 of human tumor cells; also called hCEACAM5 on MKN45 cells; CEACAM5 on CR-IGR-034P primary colon tumor cells
T2 sequence: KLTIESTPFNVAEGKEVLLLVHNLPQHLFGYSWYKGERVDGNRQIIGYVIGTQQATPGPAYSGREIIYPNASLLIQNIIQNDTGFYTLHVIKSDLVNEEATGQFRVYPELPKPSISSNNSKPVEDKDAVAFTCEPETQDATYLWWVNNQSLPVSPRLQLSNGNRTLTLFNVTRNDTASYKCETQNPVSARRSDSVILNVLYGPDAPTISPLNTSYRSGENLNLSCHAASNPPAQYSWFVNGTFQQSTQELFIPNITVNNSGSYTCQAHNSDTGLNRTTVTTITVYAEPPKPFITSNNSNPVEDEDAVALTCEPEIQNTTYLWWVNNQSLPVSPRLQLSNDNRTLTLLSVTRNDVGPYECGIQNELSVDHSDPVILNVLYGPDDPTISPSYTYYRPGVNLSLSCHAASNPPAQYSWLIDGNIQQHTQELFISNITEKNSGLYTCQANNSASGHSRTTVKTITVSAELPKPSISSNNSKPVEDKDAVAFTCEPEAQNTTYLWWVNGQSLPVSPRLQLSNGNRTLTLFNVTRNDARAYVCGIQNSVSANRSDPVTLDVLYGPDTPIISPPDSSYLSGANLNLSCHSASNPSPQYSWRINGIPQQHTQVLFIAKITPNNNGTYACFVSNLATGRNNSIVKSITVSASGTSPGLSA

T3: hCEACAM5, human CEACAM5 ECD (35-685) (human, UniProt P06731 35-685)
T3 construct: produced in HEK293; also called human CEACAM5 protein; human CEACAM5 extracellular domain
T3 sequence: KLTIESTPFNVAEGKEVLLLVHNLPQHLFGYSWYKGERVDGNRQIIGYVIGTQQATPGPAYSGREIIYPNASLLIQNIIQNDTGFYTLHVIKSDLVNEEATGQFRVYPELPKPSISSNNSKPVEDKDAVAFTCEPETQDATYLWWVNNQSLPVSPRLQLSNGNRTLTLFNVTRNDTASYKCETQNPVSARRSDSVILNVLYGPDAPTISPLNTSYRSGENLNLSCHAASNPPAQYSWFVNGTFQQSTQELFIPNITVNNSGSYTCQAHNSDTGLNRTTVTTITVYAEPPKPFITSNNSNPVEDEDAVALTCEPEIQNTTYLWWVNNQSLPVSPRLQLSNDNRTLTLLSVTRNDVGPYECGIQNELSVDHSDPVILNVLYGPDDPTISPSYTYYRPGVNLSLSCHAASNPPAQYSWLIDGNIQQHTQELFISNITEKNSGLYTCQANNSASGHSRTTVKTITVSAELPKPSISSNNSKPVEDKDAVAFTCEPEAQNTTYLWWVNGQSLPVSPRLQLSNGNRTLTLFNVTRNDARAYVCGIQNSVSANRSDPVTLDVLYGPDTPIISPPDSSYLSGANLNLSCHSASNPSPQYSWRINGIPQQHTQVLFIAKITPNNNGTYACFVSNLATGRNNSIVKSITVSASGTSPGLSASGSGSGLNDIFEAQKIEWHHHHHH

T4: CEACAM5 A2B2, human CEACAM5 A2-B2 domain (321-498) (human, UniProt P06731 321-498)
T4 construct: Followed by 6 amino acid His-Tag; also called hCEACAM5-A2-B2
T4 sequence: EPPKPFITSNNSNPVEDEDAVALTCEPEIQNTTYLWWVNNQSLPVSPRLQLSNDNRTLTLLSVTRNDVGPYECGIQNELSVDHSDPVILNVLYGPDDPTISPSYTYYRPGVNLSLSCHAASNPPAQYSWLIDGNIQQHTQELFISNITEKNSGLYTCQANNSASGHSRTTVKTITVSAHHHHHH


Experiments:
[1] = target: T1, cCEACAM5, M. fascicularis CEACAM5 ECD …; assay: ELISA, murine hybridoma mAb
[2] = target: T2, human CEACAM5 expressed on the surface …; assay: flow cytometry on CR-IGR-034P primary colon tumor cells
Procedure: Advanced human primary colon tumor CR-IGR-034P (Julien et al., Clin Cancer Res Oct. 1, 2012 18:5314-5328) was obtained from Patient-derived xenograft in mice. Tumor CR-IGR-034P was enzymatically dissociated using collagenase Type IV (Invitrogen; #17104-019) and deoxyribonuclease I (Invitrogen; #18047-019) for 1 h at […], Cell viability was estimated by Viacount application using Guava® easyCyte™ 8HT Flow Cytometry System. […] 100 μL/well of goat anti-mouse IgG conjugated with Alexa647 (Invitrogen; # A2135) or goat anti-human IgG conjugated with Alexa488 (Invitrogen; # A11013) was added for 45 min at 4° C. and washed three times with PBS 1% BSA. The antibody binding was evaluated after centrifugation and resuspension of cells by adding 200 pliwell PBS 1% BSA and read using Guava® easyCyte™ 8HT Flow Cytometry System. Apparent KD and EC50 values were estimated using BIOST@T-BINDING and BIOST@T-SPEED softwares, respectively.

[3] = target: T3, hCEACAM5, human CEACAM5 ECD (35-685); assay: ELISA, murine hybridoma mAb
[4] = target: T4, CEACAM5 A2B2, human CEACAM5 A2-B2 …; assay: ELISA on CEACAM5 domains

Row | Binder | EC50 [1] [nM] | EC50 [2] [nM] | EC50 [3] [nM] | percentage of binding compared to full binding with human CEACAM5 [4] [%]
1 | antibody MAb1 (antibody, IgG1, V domains shown) VH: EVMLVESGGGLVKPGGSLKLSCAASGFTFSSYAMSWVRQTPEKRLEWVATISSGGSYIYYLDSVKGRFTISRDNAKNTLYLQMSSLRSEDTAMYYCARPAYYGNPAMDYWGQGTSVTVSS VL: DILMTQSQKFMSTSVGDRVSVTCKASQNVGTNVAWYQQKPGQSPKPLIYSASYRYSGVPDRFTGSGSGTDFTLTISNVQSEDLAEYFCQQYNSYPLYTFGGGTKLEIK | 1.18 | 1 | – | –
2 | antibody MAb3 (antibody, IgG1, V domains shown, Murine monoclonal from hybridoma, IgG1, kappa) VH: EVKLVESGGGLVKPGGSLTLPCAASGFTFSRYAMSWVRQTPEKRLEWVASISSGGDTYYPDSVKGRFTVSRDNARNILFLQMSSLRSEDTGMYYCARVNYYDSSFLDWWGQGTTLTVSS VL: DIVMTQSQRFMSTLEGDRVSVTCKASQNVGTNVAWYQQKPGQSPKALIYSASYRYSGVPDRFTGSGSGTDFTLTISNVQSEDLAEYFCQQYNNYPLYTFGGGTKLEIK | 3.72 | 2.8 | 0.36 | –
3 | huMAb2-3 (antibody, human IgG1, kappa, V domains shown, Humanized MAb2, human IgG1 / Ckappa; also called MAb2_VL1cVH1a-IgG1) VH: EVQLQESGPGLVKPGGSLSLSCAASGFVFSSYDMSWVRQTPERGLEWVAYISSGGGITYAPSTVKGRFTVSRDNAKNTLYLQMNSLTSEDTAVYYCAAHYFGSSGPFAYWGQGTLVTVSS VL: DIQMTQSPASLSASVGDRVTITCRASENIFSYLAWYQQKPGKSPKLLVYNTRTLAEGVPSRFSGSGSGTDFSLTISSLQPEDFATYYCQHHYGTPFTFGSGTKLEIKR | – | – | – | 0.4
4 | huMAb2-1 (antibody, V domains shown, Humanized MAb2 (VL1 + VH1) fused to human IgG1 and human Ckappa constant domains; also called MAb2_VL1VH1-IgG1; MAb2VL1VH1-IgG1) VH: EVQLQESGPGLVKPGGSLSLSCAASGFVFSSYDMSWVRQTPERRLEWVAYISSGGGITYFPSTVKGRFTVSRDNAKNTLYLQMNSLTSEDTAIYYCAAHYFGSSGPFAYWGQGTLVTVSA VL: DIQMTQSPASLSASVGDTVTITCRASENIFSYLAWYQQKPGKSPKLLVYNTKTLAEGVPSRFSGSGSGTQFSLTISSLQPEDFGSYYCQHHYGTPFTFGSGTKLEIK | – | – | – | 0.3
5 | huMAb2-4 (antibody, human IgG1, kappa, V domains shown, Humanized MAb2, human IgG1 / Ckappa; also called MAb2_VL1d VH1-IgG1; MAb2_VL1dVH1-IgG1) VH: EVQLQESGPGLVKPGGSLSLSCAASGFVFSSYDMSWVRQTPERRLEWVAYISSGGGITYFPSTVKGRFTVSRDNAKNTLYLQMNSLTSEDTAIYYCAAHYFGSSGPFAYWGQGTLVTVSA VL: DIQMTQSPASLSASVGDTVTITCRASENIFSYLAWYQQKPGKSPKLLVYNTRTLAEGVPSRFSGSGSGTQFSLTISSLQPEDFGSYYCQHHYGTPFTFGSGTKLEIKR | – | – | – | 0.3
6 | huMAb2-2 (antibody, V domains shown, Humanized MAb2 (VL1a + VH1a) fused to human IgG1 and human Ckappa constant domains; also called MAb2_VL1aVH1a-IgG1; MA2_VL1aVH1a-IgG1) VH: EVQLQESGPGLVKPGGSLSLSCAASGFVFSSYDMSWVRQTPERGLEWVAYISSGGGITYAPSTVKGRFTVSRDNAKNTLYLQMNSLTSEDTAVYYCAAHYFGSSGPFAYWGQGTLVTVSS VL: DIQMTQSPASLSASVGDRVTITCRASENIFSYLAWYQQKPGKSPKLLVYNTKTLAEGVPSRFSGSGSGTDFSLTISSLQPEDFATYYCQHHYGTPFTFGSGTKLEIK | – | – | – | 0.3
7 | chMAb2 (antibody, human IgG1, kappa, V domains shown, Chimeric, human IgG1, Ck isotype; also called MAb2-IgG1; chimeric MAb2) VH: EVQLQESGGVLVKPGGSLKLSCAASGFVFSSYDMSWVRQTPEKRLEWVAYISSGGGITYFPDTVQGRFTVSRDNAKNTLYLQMNSLKSEDTAIYYCAAHYFGSSGPFAYWGQGTLVTVSA VL: DIQMTQSPASLSASVGETVTITCRASENIFSYLAWYQQKQGKSPQLLVYNTKTLAEGVPSRFSGSGSGTQFSLKINSLQPEDFGSYYCQHHYGTPFTFGSGTKLEIKR | – | – | – | 0.3
8 | antibody MAb4 (antibody, IgG1, V domains shown, Murine monoclonal from hybridoma, IgG1, kappa) VH: EVQLVESGGGLVKPGGSLKLSCAASGFTFSSYDMSWVRQTPEKRLEWVAFISSYGGRTYYADTVKGRFTISRDNAKNTLYLQMSSLKSEDTAMFYCAAHYFGTSGPFAYWGQGTLVTVSA VL: DIQMTQSPASLSASVGETVTITCRASENIYSYFAWYQQKQGKSPQLLVYNAKILAEGVPSRFSGSGSGTQFSLKINSLQPEDFGTYYCQHHYGIPFTFGSGTKLELK | 0.05 | 0.2 | 0.08 | –
9 | antibody MAb5 (antibody, IgG1, V domains shown, Murine monoclonal from hybridoma, IgG1, kappa) VH: ELQLVESGGVLVKPGGSLKLSCAASGFAFSSYDMSWVRQTPEKRLEWVTYINSGGGITYYPDTVKGRFTISRDNARNTLYLQMSSLKSEDTAIYYCTAHYFGSSGPFAYWGQGTLVTVSA VL: DIQMTQSPASLSASVGETVTITCRASENIYSYLAWYQQKQGKSPQLLVYNAKTLTEGVPSRFSGSGSGTQFSLKINSLQPEDFGSYYCQHHYGTPFTFGSGTKLEIK | 0.45 | 1.4 | 0.4 | –
